Reference: article PMC3791464 (eLife, 2013)

T1: Drosophila Orc1 in untagged recombinant ORC (Drosophila melanogaster, UniProt O16810 1-924)
T1 construct: Drosophila Orc1; source: High5 cells co-infected with six baculoviruses, co-purified (Ni, amylose, TEV, gel filtration); not shown: 6×His, N-terminal, cleaved
T1 sequence (looked up): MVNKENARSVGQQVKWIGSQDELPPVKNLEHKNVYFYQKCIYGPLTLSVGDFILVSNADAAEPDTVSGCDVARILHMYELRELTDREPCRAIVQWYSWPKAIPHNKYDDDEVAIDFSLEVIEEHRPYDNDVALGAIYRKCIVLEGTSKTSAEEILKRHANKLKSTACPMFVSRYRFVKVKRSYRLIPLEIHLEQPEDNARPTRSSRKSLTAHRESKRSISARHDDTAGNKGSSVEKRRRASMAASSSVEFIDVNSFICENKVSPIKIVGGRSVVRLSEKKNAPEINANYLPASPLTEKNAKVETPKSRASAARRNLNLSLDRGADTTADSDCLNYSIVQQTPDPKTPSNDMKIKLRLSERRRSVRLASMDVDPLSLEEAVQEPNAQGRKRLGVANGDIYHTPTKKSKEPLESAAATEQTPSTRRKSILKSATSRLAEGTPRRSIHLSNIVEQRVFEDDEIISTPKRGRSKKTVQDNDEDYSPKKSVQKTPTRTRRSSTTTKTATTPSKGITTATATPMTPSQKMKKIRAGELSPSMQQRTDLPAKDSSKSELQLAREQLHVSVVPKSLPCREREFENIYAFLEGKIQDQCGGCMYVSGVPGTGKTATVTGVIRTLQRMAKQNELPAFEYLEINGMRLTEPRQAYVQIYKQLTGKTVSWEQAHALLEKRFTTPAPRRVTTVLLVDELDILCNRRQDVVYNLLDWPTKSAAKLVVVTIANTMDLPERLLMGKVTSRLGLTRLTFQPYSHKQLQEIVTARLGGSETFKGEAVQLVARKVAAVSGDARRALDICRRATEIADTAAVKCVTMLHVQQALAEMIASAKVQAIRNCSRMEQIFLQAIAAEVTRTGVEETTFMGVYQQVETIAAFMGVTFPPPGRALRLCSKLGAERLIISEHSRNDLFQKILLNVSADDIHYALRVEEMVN


Experiments:
[1] = target: Drosophila ORC1–5 (ORC lacking Orc6), purified, 6×His-Orc1 and MBP–Orc4 (Drosophila melanogaster) (UniProt O16810); assay: fluorescence polarisation; fluorescence anisotropy, apparent Kd; 30 nM Orc6 N-terminally labelled with Alexa Fluor 488, ORC1–5 in twofold dilutions from 1 µM to 122 pM; 50 mM Tris HCl pH 7.8, 300 mM KCl, 5% glycerol, 1 mM DTT, 0.1 mg/ml BSA; 1 hr on ice; single-site fit with ligand depletion
[2] = target: T2, Drosophila ORC1–5 (ORC lacking Orc6), purified, 6×His-Orc1 and MBP–Orc4 (Drosophila melanogaster, UniProt O16810 1-924; Q24168 1-618; Q7K2L1 1-721; Q9W102 1-459; Q24169 1-460); assay: as above; details: both partners purified
T2 construct: Drosophila Orc1; Drosophila Orc2, untagged; Drosophila Orc3, untagged; Drosophila Orc4; Drosophila Orc5, untagged; source: High5 cells co-infected with five baculoviruses, purified (Ni, amylose, gel filtration; TEV step omitted); not shown: 6×His, N-terminal, kept; MBP, N-terminal, kept; copies: + + + +

[3] = target: T3, Drosophila ORC1–5 in MBP-tagged ORC for EM (6×His-Orc1, other subunits untagged) (Drosophila melanogaster, UniProt O16810 1-924; Q24168 1-618; Q7K2L1 1-721; Q9W102 1-459; Q24169 1-460); assay: co-purification over several chromatography steps; MBP–Orc6 187–257 co-expressed with 6×His-Orc1 and untagged Orc2–Orc5 in High5 cells; Ni affinity, amylose affinity and gel filtration, TEV step omitted; details: partners not purified
T3 construct: Drosophila Orc1; Drosophila Orc2, untagged; Drosophila Orc3, untagged; Drosophila Orc4, untagged; Drosophila Orc5, untagged; source: High5 cells co-infected, co-purified with MBP–Orc6 187–257 (Ni, amylose, gel filtration; TEV step omitted); not shown: 6×His, N-terminal, kept; copies: + + + +

[4] = target: T1, Drosophila Orc1 in untagged recombinant …; assay: SEC; analytical gel filtration of purified, co-expressed untagged Drosophila ORC on a Superose 6 column; elutes as a hexamer of ~390 kDa; details: both partners purified

Molecule | binding result [4] | also measured
Drosophila Orc6-Y225S, N-terminal 6×His (from UniProt Q9Y1B2 1-257) (natural protein) | – | fold reduction of affinity against wild type Orc6 [1]: > 100 fold
Drosophila Orc6, full-length (1–257), N-terminal 6×His (natural protein, Drosophila melanogaster, UniProt Q9Y1B2 1-257, looked up, Alexa Fluor 488 on the N-terminus (only in the fluorescence anisotropy assay), Drosophila Orc6, residues 1-257; also called wild-type Orc6; Orc6 WT; source: High5 cells (baculovirus): in lysate of co-infected cells; also purified (HisTrap, gel filtration); not shown: 6×His, N-terminal, kept) MTTLIEQLITKMGLREEPNVLEKTTELVRLLELRSTNVPLQINEYGKIVLCADLASCMIGIAFDKEQALKLSGLRKSQYLNNKRMFEKLLDLNKLASVNDICVQLGLNEVARKAEELMTLFKGVAATEDMGTDTSHPQYATMAVFQACRLLKKKVSKSKLMPFSNLRPSQFQLLEQQWERMIAKHHKESKVPSSTDMEGKLKENQNENIKGHEAKKAHKPPPEDYEIWKARMLAKAQAKLKELEASQSHMDSQLLEA | – | Kd [2]: 5 ± 0.7 nM
Drosophila Orc6 C-terminal domain (187–257), N-terminal 6×His (domain or fragment, Drosophila melanogaster, UniProt Q9Y1B2 187-257, looked up, Alexa Fluor 488 on the N-terminus (only in the fluorescence anisotropy assay), Drosophila Orc6, residues 187-257 (C-terminal domain); not detected in Western blots of whole-cell extract, but seen in the pull-downs; also called Orc6 187–257; Orc6 CTD; source: High5 cells (baculovirus): in lysate of co-infected cells; also purified (HisTrap, gel filtration); not shown: 6×His, N-terminal, kept) KESKVPSSTDMEGKLKENQNENIKGHEAKKAHKPPPEDYEIWKARMLAKAQAKLKELEASQSHMDSQLLEA | – | Kd [2]: 4.8 ± 0.6 nM
Drosophila MBP–Orc6 187–257 (domain or fragment, Drosophila melanogaster, UniProt Q9Y1B2 187-257, looked up, Drosophila Orc6, residues 187-257; also called N-terminally MBP-tagged C-terminal domain of Orc6 (amino acids 187–257); MBP-fusion of the C-terminal domain of Orc6; source: High5 cells co-infected with the ORC1–5 subunits, co-purified (Ni, amylose, gel filtration); not shown: MBP, N-terminal, kept) KESKVPSSTDMEGKLKENQNENIKGHEAKKAHKPPPEDYEIWKARMLAKAQAKLKELEASQSHMDSQLLEA | – | binding result [3]: binds
Drosophila Orc2 in untagged recombinant ORC (natural protein, Drosophila melanogaster, UniProt Q24168 1-618, looked up, Drosophila Orc2, no purification tag; source: High5 cells co-infected with six baculoviruses, co-purified (Ni, amylose, TEV, gel filtration)) MSASNKGGYKTPRKENLMSIENLTNSEEESEDLNTAMVGNAVESQPKVTSRRSTRRPSPTKKYQAYQKESNGKGQEERIVVNYVEMSDERSSDAEDQEEEESIEESENAARPAAKDLHLIQSEYNVAGTSMFGFNTPKKRDAMALAALNATPCTPKTPKTPRLGVKTPDTKRKKSMDQPKTPAHVRTRVKKQIAKIVADSDEDFSGDESDFRPSDEESSSSSSSSDAGNSSDNDAADDEPKTPSRARRAIVVPVLPKTPSAARLRQSARAKKSNEFVPESDGYFHSHASSKILTSDHTLDRLKNPRLAADRVFSLLSEIKTSAEHEGSINAIMEEYRSYFPKWMCILNEGFNILLYGLGSKHQLLQSFHREVLHKQTVLVVNGFFPSLTIKDMLDSITSDILDAGISPANPHEAVDMIEEEFALIPETHLFLIVHNLDGAMLRNVKAQAILSRLARIPNIHLLASIDHINTPLLWDQGKLCSFNFSWWDCTTMLPYTNETAFENSLLVQNSGELALSSMRSVFSSLTTNSRGIYMLIVKYQLKNKGNATYQGMPFRDLYSSCREAFLVSSDLALRAQLTEFLDHKLVKSKRSVDGSEQLTIPIDGALLQQFLEEQEKK | binds | –
Drosophila Orc3 in untagged recombinant ORC (natural protein, Drosophila melanogaster, UniProt Q7K2L1 1-721, looked up, Drosophila Orc3, no purification tag; source: High5 cells co-infected with six baculoviruses, co-purified (Ni, amylose, TEV, gel filtration)) MDPTISVSKGCFVYKNGATRAGKKAASKRKRPAAESSSLLGKEVVQQPFYEEYRKAWNQINDHIADLQHRSYARTLEQLVDFVVGQAERDTPDEVLPTAALLTGINQPDHLSQFTALTQRLHAQRAAMVCVLQSRDCATLKAAVETLVFGLVEDNAEVEQMEDEDEDEDGAERDRKRLRRSQCTMKQLKSWYTNNFDSEQKRRQLVVILPDFECFNASVLQDLILILSAHCGSLPFVLVLGVATAMTAVHGTLPYHVSSKIRLRVFQTQAAPTGLNEVLDKVLLSPKYAFHLSGKTFKFLTHIFLYYDFSIHGFIQGFKYCLMEHFFGGNAFALCTDYSKALGRIKQLTHEDMETIRRLPSFRPYVEQINDCKRIIAVLTDDDYLKKKLPQLLRDCLLHFLLFRCSLEFLTELVGDLPRCPLGKLRRELYVNCLNRAIISTPEYKECLQMLSFLSKDEFVAKVNRALERTEQFLVEEIAPLELGEACTAVLRPKLEAIRLAVDEVVKATMATITTTSPNETRQATDHLTPVASRQELKDQLLQRSKEDKMRHQLNTPTTQFGRALQKTLQLIETQIVQDHLRALQDAPPIHELFVFSDIATVRRNIIGAPRAALHTALNNPHFYMQCKCCELQDQSLLVGTLPDLSVVYKLHLECGRMINLFDWLQAFRSVVSDSDHEEVAQEQIDPQIQARFTRAVAELQFLGYIKMSKRKTDHATRLTW | binds | –
Drosophila Orc4 in untagged recombinant ORC (natural protein, Drosophila melanogaster, UniProt Q9W102 1-459, looked up, Drosophila Orc4; source: High5 cells co-infected with six baculoviruses, co-purified (Ni, amylose, TEV, gel filtration); not shown: MBP, N-terminal, cleaved) MPEADRELVSIRRFLKERLQRDYTTLRGYAKERSNVRLLLQRTAEMGESNSLLLLGPRGSGKTTLINSVLADLLPNKSFGENTLIVHLDGNLHTDDRVALKSITVQMQLENAADGKVFGSFAENLAFLLQCLKAGGKHSKSVIFILEEFDLFCAHHNQTLLYNLFDVSQSAQAPICVLGVTCRLDVIELLEKRVKSRFSHRQVFLFPSLRRFEDYVDLCRDLLSLPTGNSLLLAAEKIYNLQNIQSGALYFSRNHFDPGEYGFSPRLRDAWNKQICKVLATQQARSTLQALHDFDISEAYLKNFLFRLVAHLRPQSPHITAEKMAAVGSQFEGDDKIELLCGLSVLELCLIIAIKHHSQIYDRDSFNFEIIYARFSKFAKVSTTMQAVERSIVLKAFEHLRIAELIMPLTGGAGGGVGKVQKEFEMHKLALTYSQIHHCMQRYQALPTEVAQWAQSSLI | binds | –
Drosophila Orc5 in untagged recombinant ORC (natural protein, Drosophila melanogaster, UniProt Q24169 1-460, looked up, Drosophila Orc5; the methods list Orc4 twice and leave Orc5 out of the untagged subunits; source: High5 cells co-infected with six baculoviruses, co-purified (Ni, amylose, TEV, gel filtration)) MEAICSSLEPLFPCREAAIETLGELIGDSSETYPSAIYLFGHSGTGKTALTRAFLKECGKRQNVRTAHLNAIECYTTKIMLEILLDSLAPDQGDALKVDNMLDFVEQLRRQAATRVEDQGFLIAVDNAERLRDMDANVLPVLLRLQELTNLNLCVILLSQLPFEKFYNKTGLSEIVCLHLAQYNKAETQRILGSDFQQVRNQLLEQFAQDKKRLEICQEAVTEDFYNNYLNLFLSVFYKACRDVPELQLTARKCLSTYLEPVLDGTVDATDISRLWRHIAGPLRSALTQIYMRIEKPAEEVEDFTAIEDQSVRKLAQSLELPYYAKFLLIAAFLASHNAAKQDKRLFVKHHGKQRKRMQTVNARAKTTEKMSTTLGPKSFSIDRLLAIFYAILEEKVGLTCNLLSQISTLVHLNLLSFVSGEQNIMEGSARLQCTIGLEFVLQIGKVVGFNVRQYLCDFM | binds | –
Drosophila Orc6 in untagged recombinant ORC (natural protein, Drosophila melanogaster, UniProt Q9Y1B2 1-257, looked up, Drosophila Orc6, no purification tag; source: High5 cells co-infected with six baculoviruses, co-purified (Ni, amylose, TEV, gel filtration)) MTTLIEQLITKMGLREEPNVLEKTTELVRLLELRSTNVPLQINEYGKIVLCADLASCMIGIAFDKEQALKLSGLRKSQYLNNKRMFEKLLDLNKLASVNDICVQLGLNEVARKAEELMTLFKGVAATEDMGTDTSHPQYATMAVFQACRLLKKKVSKSKLMPFSNLRPSQFQLLEQQWERMIAKHHKESKVPSSTDMEGKLKENQNENIKGHEAKKAHKPPPEDYEIWKARMLAKAQAKLKELEASQSHMDSQLLEA | binds | –
